According to the DeepSol protein solubility set:

Test: soluble on expression in E. coli; label from the status in PepcDB or PDB records

Sequence	soluble on expression in E. coli
MEEFVNPCKIKVIGVGGGGSNAVNRMYEDGIEGVELYAINTDVQHLSTLKVPNKIQIGEKVTRGLGAGAKPEVGEEAALEDIDKIKEILRDTDMVFISAGLGGGTGTGAAPVIAKTAKEMGILTVAVATLPFRFEGPRKMEKALKGLEKLKESSDAYIVIHNDKIKELSNRTLTIKDAFKEVDSVLSKAVRGITSIVVTPAVINVDFADVRTTLEEGGLSIIGMGEGRGDEKADIAVEKAVTSPLLEGNTIEGARRLLVTIWTSEDIPYDIVDEVMERIHSKVHPEAEIIFGAVLEPQEQDFIRVAIVATDFPEEKFQVGEKEVKFKVIKKLHHHHHH	soluble
MEEGDIVGILKVFFVRTGAIGKRLGFKAGDIRIREEIVQANLTWKEDGEIRRERIKTRFFGYFRSHVAEWEPVIAAESVDVERGEVARIKIKEITLPEYTVITPLFIRRHALGSLIDVVQQGKRRKVEEKKRIGEAIFLPARSGRVEKGDLLGVINVYYIATENFSVGRREKDEVLAKVVDERGRKEFRIKPFAYRRKTIARWEPIVAAENRKVRKGEVEEIAIEPISLEENTIVYPLYVMRNAFGSVVDVVEERPRRVEERREIIKAVFLPVFDGEIRKGQLLGVMNVYSIEVQPYEVIWRWLEEWQGEFRRLFAEVVGLEHHHHHH	soluble
MEEINTKEVAQRITTELKRYSIPQAIFAQRVLCRSQGTLSDLLRNPKPWSKLKSGRETFRRMWKWLQEPEFQRMSALRLAACKRKEQEHGKDRGNTPKKPRLVFTDVQRRTLHAIFKENKRPSKELQITISQQLGLELSTVSNFFMNARRRSLDKWLEHHHHHH	soluble
MEEKKEDKFILLKNLYEEWKDCTRCDLHKSRTRVVPGDGNPYSLLVFVGEAPGEEEDRQGKPFVGRAGQLLNRLIEEVLGMKREDVYITNVCKCRPPQNRKPTPIEMRACFPYLKKEIEIIQPKVICCLGATAGEGILGKSLRITKVRGQVFPYPYNPRIKVFLTYHPAYVLRNPKEETTIIKDFEKLKELLTQE	soluble
MEEMMMNDPSAMVIYEEEVTTAPNLPCSLIQQRSWDEEKPIGYELTNTKCYKTPNGVQKTATIQREQLSTSKDFGEQQIVEMDGEFSIEGTDMHAIPCTSSSMQPSTSSNPSSGEHQPVPLRRMAIKIGQRVLRFKVISAEEAPEAPLDTQDSWINDPKPVTTPKALAGLYRCTNCKTYFGNKEVYQRHIQEVHGDARPFRCFNCGMRFANKTSMTHHLKDHSLLKPMFSCDYCPRIFSKLESKTRHHKMHFTRSTCQTCMRFFTTEDALRHHQSTAHPATFDSGPPPEDLLPNGKSARYSCSYCNLRFHFKKDMLVHERIHTGEKPYSCGYCMKSFAQSQALTAHIRTHTKELPYGCGKCDKRFRDNSCLRKHELAAHTDEPIVRPISVAYSNQVQKQMQRQRENRRKQELLIAERHPYRI	not soluble
MEERLSTTSSYPSHPGRSVEEDHNTLLASSSISSIIRGTRGHLNNFIESVGNWLVPSSSGRDDDAVSLDSCQSVYSPVRHHINSGTGGGILMEPSSIHVPENYYSVTIGEAQMVVLKRYQNLRLIGSGAQGIVCSAFDTVRNEQVAIKKLSRPFQNVTHAKRAYRELKLMSLVNHKNIIGILNCFTPQKKLDEFNDLYIVMELMDANLCQVIQMDLDHERLSYLLYQMLCGIRHLHSAGIIHRDLKPSNIVVRSDCTLKILDFGLARTAIEAFMMTPYVVTRYYRAPEVILGMGYKENVDVWSIGCIFGELIRGRVLFPGGDHIDQWTRIIEQLGTPDRSFLERLQPTVRNYVENRPRYQATPFEVLFSDNMFPMTADSSRLTGAQARDLLSRMLVIDPERRISVDDALRHPYVNVWFDEIEVYAPPPLPYDHNMDVEQNVDSWREHIFRELTDYARTHDIYS	not soluble
MEESLKVGIAGLGTVGSSVVRILREKANSLTCQCGRSIKVVAVSARDKSRNRGIDLSDVKWFDSPVEMASSDEIDVFVELIGGESDVVYAAVKKALETGHHVVTANKALLAQHGGRLAVSAEKKGVFLHFEAAVAGGIPIIKVMRESLVSNHISRIYGILNGTCNYILTRMFTEGLSFKECLEDAQRLGYAEVDPTFDIGGNDTAHKLALLTSLAFGTAVSLDDIYVEGISNISQIDIRAADELGYRIKLLGVALKTETGIEQRVHPTMVPTSSMIAQIHGVTNALSIQSDLLGELLLSGPGAGGTATASAVIGDLADIAKARPGFQYAPVLGRPALGLAPHKKARISHHAGGYFIRLNVHDRAGVFAAVAKHMAGNHISLESIVQRSFVESQSVKTIILITHETTEVNVQQALAAIEKDGHLVAKSQFIRIEPMVLEHHHHHH	not soluble
MEFAGTIFIELTFTPKVPRLNRDDLNKEMDRLDSSMAMRPIPPLPTESEYDYVHGSTMRQITPQCVSTSHEDKDEGQPYRNGNVFSMSSKSDTAVLANSNDPIILPPTFSASMGTTSTLETNDTAISNTSNTKFHFANLRKLKEKINIFKNPDSST	not soluble
MEFELEQHTPIIHFQARDAGATLRASEVKPKLDKFILTQIGKRFVKKTASTTEKNFIERGIEYFQNKDEEARRVYEEEKKKGNKGAKLELCLIPGQEGALNYKLSFKLSPDAKVQYFLPMSSNPKEIDKLKSLAQEKLGVQEVEMLPLTSYFANEDKAKSEPNIKHGDTPDQIKNKKRIFEENWQKVQLATFVNTPVEGVIRFQNAGLREEVNNLITNFFMLHNFGARQSKGFGSFIISLRDGKEEEDYFDTGCACYGYSFYIPAKTLEEALRKINYFYRSLRSGFNEYRGKNEIFYAKSGMHFYATKHNFEWDKKSIKGMLFDRDKDLEGKMKKEELFAFRDLLGLSSNERWQSYKTTITKECRNKKGEKFDRIKSPIQFKPICYSKYDYIVFFDLFPEKSGIPQLKGGKVVVKSSRHKGAVLELKIQEDIDLYNVFNEIFSELNFESQVGEYDSLTDAKEIFETMKDIYEQLNKNCHE	not soluble
MEFKLHNGSGGLCCKSCSRQDKKLNTYDWLADIPGNAEESDMVEVQFKNTRKGYYRNSNKIKLEKGDIVAVEATPGHDIGTVTLTGRLVPLQMKKANFKQDAEIKRIYRKAKAVDMEKYEEAKAKEHTTMIRARQIAASLNLDMKIGDVEYQGDGNKAIFYYIADERVDFRQLIKVLAEAFRVRIEMKQIGARQEAGRIGGIGPCGRELCCATWMTSFVSVSTSAARYQDISLNPQKLAGQCAKLKCCLNYEVDCYVEAQKRLPSREIELETKDGTYYFFKADILSNQISYSTDKNFAANLVTISGKRAFEVIGLNKRGIKPDSLLEAERKPEPKKPVDLLEQESLTRFDRDRRRNAKDGNGKDEGGNGNRKKKKKNNNHPQQATNGETQSSQPTPINAQENNGSQPVQNQQRTRGERPKNNNRNNNQPRKNNESREPRSNENRETRKNEPREQRPPREPRGPRNNEQPKRIEKAQENEKPAQELEHHHHHH	not soluble
MEGGKLQSTFVFEEIGRRLKDIGPEVVKKVNAVFEWHITKGGNIGAKWTIDLKSGSGKVYQGPAKGAADTTIILSDEDFMEVVLGKLDPQKAFFSGRLKARGNIMLSQKLQMILKDYAKL	soluble
MEGLLIDYVQPGSIAEELEIEAGDRLVAINGQDLRDIIDFSFYAHDEELALEIVKPSGDHWEAEIERDGDEPLGLVFAPPVPAQCGNKCVFCFVHQLPLEHHHHHH	soluble
MEGVMGQVEKRPISTIVFIVAMQKEAQPLINRLRLVEEVNTPFPKEVTWIMFKGMYKDLNINIVCPGKDSTLGVESVGTVPASLVTYASILAIQPDLIINAGTAGGFKAKGACISDVYVVSTVAFHDRRIPVPVLDIYGVGMRNTFPTPNLIKELNLKVGRLSTGDSMDMSPHDEESITANDATVKDMEGAAVAYVADIFKVPTILIKGVTDIVDGNRPTSEEFLENLAAVTAKLDESLTKVIDFISGKCLSDL	soluble
MEGWQRAFVLHSRPWSETSLMLDVFTEESGRVRLVAKGARSKRSNLKGALQPFTPLLLRYSGRGEVKTLRSAEAVSLALPLSGITLYSGLYINELLSRVLEYETRFSELFFDYLNCIQALAGTTGSPEPALRRFELALLGHLGYGVNFTHCAGSGERVDDTMTYRYREEKGFFASVVIDNNTFTGRHLKALEAREFPDVDTLRAAKRFTRMALKPYLGGKPLKSRELFRQFMPKRTVKTKKD	not soluble
